Assay results taken from the DeepSol protein solubility set.

Assay: soluble on expression in E. coli; label from the status in PepcDB or PDB records

| Sequence | soluble on expression in E. coli |
| --- | --- |
| MLYLNQKPEYSKYDIGDYTYSKVGPTIFSWNDETKLKIGKFCSLGEEVVFLLGGEHRADWITTYPFNALFGEGAHITGHPSSKGDIVVGNDVWIGYQSCISSGVTIGNGAIIGARSVITKDVPPYAIVAGNPAKFVRYRFPQETIDKLESLAWWDWDISVIKGAIPLLLSNKIDEFFTSPEKEST | not soluble |
| MLYLTQRLEIPAAATASVTLPIDVRVKSRVKVTLNDGRDAGLLLPRGLLLRGGDVLSNEEGTDFVQVIAADEEVSVVRCDDPFMLAKACYALGNRHVPLQIMPGELRYHHDHVLDDMLRQFGLTVTFGQLPFEPEAGAYASES | soluble |
| MMDDILKQIKAGEVSGVQFKERILDKYDIACELVAFSNSHGGKLVVGIKDKTGETNALSYSEVQETTNLLSDIASENVVPSILIKIDTVEVEDGNLVVATVKEGLNKPYHDNKGIVWVKNGADKRKVFDNAELAEMMTDCGSFAPDEAGVRDATVNDLDATTIKQFLGNRFERVLDKKGLTGDAFNEASLDMICSAIAKGHDCEKILRNLRFIRPDGTLTVAAMLLFGKYTQRWMPMMTAKCICFAGNSVGSKVFRDKVNDADMEGNLLHQYDTIMDFFTRNLHNVQVGDEFNSMGKLEIPYTSLVEFTVNSLVHRSLNMKAPVRIFIFDNRVEIHSPGALPNGLTIDDIKAGTSMPRNTFLFNNAIYLLPYTGVGSGITRALDEDINVTFMNNDKAQEFVITVWRGESNQVEDLDTGLRHSDTDLDTGLRHSDTDLDTKRVTLTNKEKDIVNFCSVPRTTKEILDRIGVSMHSKNRERYITSLVAAGYLQMTNPDNPTASNQKYKKVNKR | not soluble |
| MMDDILKQIKAGEVSGVQFKERILDKYDIACELVAFSNSHGGKLVVGIKDKTGETNALSYSEVQETTNLLSDIASENVVPSILIKIDTVEVEDGNLVVATVKEGLNKPYHDNKGIVWVKNGADKRKVFDNAELAEMMTDCGSFAPDEAGVRDATVNDLDATTIKQFLGNRFERVLDKKGLTGDAFNEASLDMICSAIAKGHDCEKILRNLRFIRPDGTLTVAAMLLFGKYTQRWMPMMTAKCICFAGNSVGSKVFRDKVNDADMEGNLLHQYDTIMDFFTRNLHNVQVGDEFNSMGKLEIPYTSLVEFTVNSLVHRSLNMKAPVRIFIFDNRVEIHSPGALPNGLTIDDIKAGTSMPRNTFLFNNAIYLLPYTGVGSGITRALDEDINVTFMNNDKAQEFVITVWRGESNQVEDLDTGLRHSDTDLDTGLRHSDTDLDTKRVTLTNKEKDIVNFCSVPRTTKEILDRIGVSMHSKNRERYITSLVAAGYLQMTNPDNPTASNQKYKKVNKRLEHHHHHH | soluble |
| MMDNNITETEMKVGHPPANKVGGRRVVNRKDRKNSDSNDNANSEGSDEVVREIIDYDLPAKMERSYPTEAVKKVHEKPMPAIQPVHINRDANSGVHRFQPRKQTH | soluble |
| MMENYITSFQLRFCPAAYLHLEQLPSLWRSILPYLPQWRDSAHLNAALLDEFSLDTDYEEPHGLGALPLQPQSQLELLLCRLGLVLHGEAIRRCVLASPLQQLLTLVNQETLRQIIVQHELLIGPWPTHWQRPLPTEIESRTMIQSGLAFWLAAMEPQPQAWCKRLSLRLPLATPSEPWLVAESQRPLAQTLCHKLVKQVTPTCSHLFK | not soluble |
| MMEVRINKFLSEAGVASRRKAEKLILEGRVKVNGEVVRSLGVKVNPEVDIVEVDGKPVKPQRKRYIILNKPCCYLTQLGRSPDGRKTIEELIKDIPERVFPVGRLDYNTEGLLILTNDGELANRILHPRYKLPKVYLALVEGKVDQKTLKRMKQGIELEDGFAKPDNIRIVRYEGKNTLLEITFHEGRKHLVKRFLGAFGHKVKRLKRIAIGPIKLGKLSPGKWRELNQGELAQLFKAVGLKYVPRKRRLEHHHHHH | soluble |
| MMGCLPTKQVGRSTHSLNPREAVALAAETSFTVNEVEALYDLFRKLSNSIIKDGLIHKEEFHLALFRNKKTNLFVDRVFDLFDQKGNGVIEFDEFVRSLSVFHPDAPEEQKAGFAFKLYDLRQTGFIERHELKEMVLALLDESDLNITSDAVEMIVDRTFDQADTKGDERIDQEEWNEFVKNNPYVLRNMTLPYLKDLTMVFPSFVIHSEVSEADMVA | soluble |
| MMGNKLTLPAELPDEQDLRAVLAYNMRLFRVNKGWSQEELARQCGLDRTYVSAVERKRWNIALSNIEKMAAALGVAAYQLLLPPQERLKLMTNSADTRQMPSESGI | not soluble |
| MMKQNPILITGGTGTVGSRIASRLIKLGYRVRIASRKKGALADAEYVYFNWKYASSFTPALEQVKQIYLVAPVGVFDPAPYVLPFLKEAKRLGAKRVVMQSASVVSENGPVFGALHQAVREFPEWTVLRPSYFMQNFINVQHRMSIQTEGRITTASGEGKLGFIDADDIAETAVRALIDDVPHQTHHILTGPEALSYAEAAEIIGAAAGRRVEHVSISRSELQHKMEAGGLPADYAHFMAKLDEAISHGAEHRVTDTVKRVTGKEPRSLSEFAAAHAAYWTSFWTELEHHHHHH | not soluble |
| MMLITTSHRPTRRTRSFGHDLERVFPNSLYLTRGKKTIQELLMEAYDRGYERLLILNVWKGNPLKMTFIKVHPEDWGYLGYLYLHGIKLQREMGFKGLNPIREDMPLVVTTAKRVGWDHIAFAQVFAELTTGKFVPRGDKSLTYIADKYDTDVIAVIERHPRGMVINFYRLDVTKDRPVGPLINVKIWIMEDGRRWDYKEALGIKVPRREKGEGQESSSENRDLEHHHHHH | soluble |
| MMLNNFETDSIFTPEQVLENRGRVAIFIDGSNLFYAALQLGIEIDYTKLLCRLTGGSRLLRSFFYTGVDRTNEKQQGFLLWMRRNGYRVIAKDLVQLPDGSKKANLDVEIAVDMMALVDSYDTAVLVSGDGDLAYAVNSVSYRGVRVEVVSLRSMTSDSLINVSDRYIDLEAIKEDIQKTPRQSYPYRPLSGIGFLEDPRTSDGHLEIQE | not soluble |
| MMLSNFKRNKYQQHLAQLPRISQNADDVQTLHSPELFRTTLTNAILRAKKRVYIVALYLERDDGGIGILSAIYEAKRQCPELDVRVLVDWHRAQRGRIGTAAENTNADWYCDMAKKHPDTHFPIYGIPVNTREALGVLHLKGFIVDDTVIYSGASLNDVYLHQHQKYRYDRYQLIHNPVLADTMVQYIQTMLSAPAVQRLDHTDRPKSLEIKNDIKQFRQTLRTASYQAPECSANANELTVTPLVGLGKQSPLNKTIHHLMYCADEHLVICTPYFNMPALLVRNIIRLLRDGKKVEIIIGDKTANDFYIPEDQPFKIIGALPYLYEINLRRFLSRLERYIENQQLVVRLWKDGDNSFHLKGMWVDGKWQLLTGNNLNPRAWRLDLENAILIHDPQQVLLQQRLDELDTIRTHTHVVKSYTELESIAQYPVKVRKLIRRLRRIRIDRLISRILLEHHHHHH | not soluble |
| MMNKLPHETRVVIGMSGGVDSSVAALLLKEQGYDVIGIFMKNWDDTDENGVCTATEDYNDVIEVCNQIGIPYYAVNFEKQYWDKVFTYFLDEYRAGRTPNPDVMCNKEIKFKAFLEHAIALGADYVATGHYARVAYMDGEYKMLRGVDDNKDQTYFLNQLSQEQLSKTMFPLGELKKPQIREMAKEAGLATAAKKDSTGICFIGERNFKDFLSNYLPAQPGVMQTLSGEVKGKHDGLMYYTIGQRHGLGIGGNGDPWFAVGKNLKENILYVDQGFHNELLYGDEVIATNVGWVSNKEKETEFKCTAKFRYRQEDNKVTVQIVDENTVRILCDEPIRAITPGQAVVFYDGDECLGGATIDEVYRSGKKLDYLG | not soluble |
| MMPNEKITLKQLIDHCFDTTKTTIKQQIVFGAGKIENKNFNIVGTVEDTSFGVDESIEMARCILDIIKNNNTDPIVLLTDVAGQKLAVRDEWLGMYAYFAHLLKCLHLARQNGNKIITLIYNQAIGGSFIAFGMMADRIYALKNAKLAVMWLEGMSKVTKIDIDVLRKISETSPVFAPGVENFKKLGGLHQVLDLDEVSQQLLLTLQEPNISHDNRAELGKQYGGRKEAYDIIKAIENL | not soluble |
| MMYPYVRLFMEMRRARRLDPLPVLGTHRSSHRCLPWDLAPWRELNNGRTLTLFDLGRAPLLVRTGMQRICSEKGWGMTVAGSSVRYRRRVVLMERLEMVSRCLGWDGRFFYMEQSLWRKGDCTSHMLLRAATTTGSGIVPPAEVAAALGAGESPPLPDWAQAWIEADALRPWPPAALEHHHHHH | not soluble |
